Data as given in patent US10005829B2, “Synthetic linear apelin mimetics for the treatment of heart failure” (priority 2012, dated 2018).
[ ]: non-standard residue; d: D form. pGlu = O=C1CC[C@@H](C(=O)O)N1; dNle = CCCC[C@@H](N)C(=O)O; dNva = CCC[C@@H](N)C(=O)O; Nle = CCCC[C@H](N)C(=O)O; Aib = CC(C)(N)C(=O)O

T1: APJ receptor (human, UniProt P35414 1-380)
T1 sequence (looked up): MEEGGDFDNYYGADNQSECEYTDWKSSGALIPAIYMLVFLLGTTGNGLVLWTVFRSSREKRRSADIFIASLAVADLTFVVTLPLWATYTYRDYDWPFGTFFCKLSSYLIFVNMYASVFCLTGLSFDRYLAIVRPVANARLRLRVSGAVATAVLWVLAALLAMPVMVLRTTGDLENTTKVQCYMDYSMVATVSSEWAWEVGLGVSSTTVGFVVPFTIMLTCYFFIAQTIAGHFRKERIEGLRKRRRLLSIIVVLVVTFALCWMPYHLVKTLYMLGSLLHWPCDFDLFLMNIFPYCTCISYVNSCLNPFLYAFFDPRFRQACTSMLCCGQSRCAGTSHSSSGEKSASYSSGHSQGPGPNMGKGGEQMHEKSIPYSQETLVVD


target: T1, APJ receptor; test: cell-based or functional assay

Binder	hAPJ Ca^2+ Flux EC50 [nM]
[pGlu]RPRL[dA][dF]KGP[dNle][dA][dF]-OH (SMILES CCCC[C@@H](NC(=O)[C@@H]1CCCN1C(=O)CNC(=O)[C@H](CCCCN)NC(=O)[C@@H](Cc1ccccc1)NC(=O)[C@@H](C)NC(=O)[C@H](CC(C)C)NC(=O)[C@H](CCCNC(=N)N)NC(=O)[C@@H]1CCCN1C(=O)[C@H](CCCNC(=N)N)NC(=O)[C@@H]1CCC(=O)N1)C(=O)N[C@H](C)C(=O)N[C@H](Cc1ccccc1)C(=O)O) [pE-R-P-R-L-a-f-K-G-P-nle-a-f-OH]	9.2
ERPRLAHKGPLF (pE at 1; D-Ala at 6; Nle (L-norleucine) at 11; D-Phe at 12) [pE-R-P-R-L-a-H-K-G-P-Nle-f-OH]	10.7
ERPRLAHKGPLXF (pE at 1; D-Ala at 6; D-Nle at 11; D-Abu at 12; D-Phe at 13) [pE-R-P-R-L-a-H-K-G-P-nle-abu-f-OH]	2.4
[pGlu]RPR[dL]S[Aib]KGP[dNle][dA][dF]-OH (SMILES CCCC[C@@H](NC(=O)[C@@H]1CCCN1C(=O)CNC(=O)[C@H](CCCCN)NC(=O)C(C)(C)NC(=O)[C@H](CO)NC(=O)[C@@H](CC(C)C)NC(=O)[C@H](CCCNC(=N)N)NC(=O)[C@@H]1CCCN1C(=O)[C@H](CCCNC(=N)N)NC(=O)[C@@H]1CCC(=O)N1)C(=O)N[C@H](C)C(=O)N[C@H](Cc1ccccc1)C(=O)O) [pE-R-P-R-(D-Leu)-S-Aib-K-G-P-nle-a-f-OH]	5
ERPRLAHKGPLPF (pE at 1; D-Ala at 6; Nle (L-norleucine) at 11; D-Phe at 13) [pE-R-P-R-L-a-H-K-G-P-Nle-P-f-OH]	34.5
ERPRLXHKGPLAF (pE at 1; D-Abu at 6; D-Nle at 11; D-Ala at 12; D-Phe at 13) [pE-R-P-R-L-abu-H-K-G-P-nle-a-f-OH]	3
H-RPRL[dA]HKGP[dNle][dF]-OH (SMILES CCCC[C@@H](NC(=O)[C@@H]1CCCN1C(=O)CNC(=O)[C@H](CCCCN)NC(=O)[C@H](Cc1c[nH]cn1)NC(=O)[C@@H](C)NC(=O)[C@H](CC(C)C)NC(=O)[C@H](CCCNC(=N)N)NC(=O)[C@@H]1CCCN1C(=O)[C@@H](N)CCCNC(=N)N)C(=O)N[C@H](Cc1ccccc1)C(=O)O) [H-R-P-R-L-a-H-K-G-P-nle-f-OH]	1.4
[pGlu]RPRL[dA]LKGP[dNle][dA][dF]-OH (SMILES CCCC[C@@H](NC(=O)[C@@H]1CCCN1C(=O)CNC(=O)[C@H](CCCCN)NC(=O)[C@H](CC(C)C)NC(=O)[C@@H](C)NC(=O)[C@H](CC(C)C)NC(=O)[C@H](CCCNC(=N)N)NC(=O)[C@@H]1CCCN1C(=O)[C@H](CCCNC(=N)N)NC(=O)[C@@H]1CCC(=O)N1)C(=O)N[C@H](C)C(=O)N[C@H](Cc1ccccc1)C(=O)O) [pE-R-P-R-L-a-L-K-G-P-nle-a-f-OH]	4.4
[pGlu]RPRLS[Aib]KGP[Nle][dA][dF]-OH (SMILES CCCC[C@H](NC(=O)[C@@H]1CCCN1C(=O)CNC(=O)[C@H](CCCCN)NC(=O)C(C)(C)NC(=O)[C@H](CO)NC(=O)[C@H](CC(C)C)NC(=O)[C@H](CCCNC(=N)N)NC(=O)[C@@H]1CCCN1C(=O)[C@H](CCCNC(=N)N)NC(=O)[C@@H]1CCC(=O)N1)C(=O)N[C@H](C)C(=O)N[C@H](Cc1ccccc1)C(=O)O) [pE-R-P-R-L-S-Aib-K-G-P-Nle-a-f-OH]	3.3
ERPRLAHKGPLA (pE at 1; D-Ala at 6; D-Nle at 11; D-Ala at 12; C-terminal NH(Phenethyl) amide) [pE-R-P-R-L-a-H-K-G-P-nle-a-NH(Phenethyl)]	16.2
[pGlu][dR]PRL[dA]HKGP[dNle][dA][dF]-OH [pE-r-P-R-L-a-H-K-G-P-nle-a-f-OH]	796
[pGlu]RPRL[dA]H[dK]GP[Nle][dA][dF]-OH [pE-R-P-R-L-a-H-k-G-P-Nle-a-f-OH]	99
[pGlu]RPRL[dNva]HKGP[dNle][dA][dF]-OH (SMILES CCCC[C@@H](NC(=O)[C@@H]1CCCN1C(=O)CNC(=O)[C@H](CCCCN)NC(=O)[C@H](Cc1c[nH]cn1)NC(=O)[C@@H](CCC)NC(=O)[C@H](CC(C)C)NC(=O)[C@H](CCCNC(=N)N)NC(=O)[C@@H]1CCCN1C(=O)[C@H](CCCNC(=N)N)NC(=O)[C@@H]1CCC(=O)N1)C(=O)N[C@H](C)C(=O)N[C@H](Cc1ccccc1)C(=O)O) [pE-R-P-R-L-nva-H-K-G-P-nle-a-f-OH]	19.5
[pGlu]RPRL[dA]HKGP[Nle][dA][dF]-OH [pE-R-P-R-L-a-H-K-G-P-Nle-a-f-OH]	2.4
[pGlu]RPRLS[Aib]KGP[Nle][dA]F-OH (SMILES CCCC[C@H](NC(=O)[C@@H]1CCCN1C(=O)CNC(=O)[C@H](CCCCN)NC(=O)C(C)(C)NC(=O)[C@H](CO)NC(=O)[C@H](CC(C)C)NC(=O)[C@H](CCCNC(=N)N)NC(=O)[C@@H]1CCCN1C(=O)[C@H](CCCNC(=N)N)NC(=O)[C@@H]1CCC(=O)N1)C(=O)N[C@H](C)C(=O)N[C@@H](Cc1ccccc1)C(=O)O) [pE-R-P-R-L-S-Aib-K-G-P-Nle-a-F-OH]	2.4
[pGlu]RPRLS[Aib]KGP[dNle][dA]F-OH (SMILES CCCC[C@@H](NC(=O)[C@@H]1CCCN1C(=O)CNC(=O)[C@H](CCCCN)NC(=O)C(C)(C)NC(=O)[C@H](CO)NC(=O)[C@H](CC(C)C)NC(=O)[C@H](CCCNC(=N)N)NC(=O)[C@@H]1CCCN1C(=O)[C@H](CCCNC(=N)N)NC(=O)[C@@H]1CCC(=O)N1)C(=O)N[C@H](C)C(=O)N[C@@H](Cc1ccccc1)C(=O)O) [pE-R-P-R-L-S-Aib-K-G-P-nle-a-F-OH]	3.9
[pGlu]RPRLS[Aib][dK]GP[dNle][dA][dF]-OH (SMILES CCCC[C@@H](NC(=O)[C@@H]1CCCN1C(=O)CNC(=O)[C@@H](CCCCN)NC(=O)C(C)(C)NC(=O)[C@H](CO)NC(=O)[C@H](CC(C)C)NC(=O)[C@H](CCCNC(=N)N)NC(=O)[C@@H]1CCCN1C(=O)[C@H](CCCNC(=N)N)NC(=O)[C@@H]1CCC(=O)N1)C(=O)N[C@H](C)C(=O)N[C@H](Cc1ccccc1)C(=O)O) [pE-R-P-R-L-S-Aib-k-G-P-nle-a-f-OH]	79.9
[pGlu]RPRLS[Aib]KGP[dNle][dA][dF]-OH (SMILES CCCC[C@@H](NC(=O)[C@@H]1CCCN1C(=O)CNC(=O)[C@H](CCCCN)NC(=O)C(C)(C)NC(=O)[C@H](CO)NC(=O)[C@H](CC(C)C)NC(=O)[C@H](CCCNC(=N)N)NC(=O)[C@@H]1CCCN1C(=O)[C@H](CCCNC(=N)N)NC(=O)[C@@H]1CCC(=O)N1)C(=O)N[C@H](C)C(=O)N[C@H](Cc1ccccc1)C(=O)O) [pE-R-P-R-L-S-Aib-K-G-P-nle-a-f-OH]	2
[pGlu]R[dA]RL[dA]HKGP[dNle][dA][dF]-OH (SMILES CCCC[C@@H](NC(=O)[C@@H]1CCCN1C(=O)CNC(=O)[C@H](CCCCN)NC(=O)[C@H](Cc1c[nH]cn1)NC(=O)[C@@H](C)NC(=O)[C@H](CC(C)C)NC(=O)[C@H](CCCNC(=N)N)NC(=O)[C@@H](C)NC(=O)[C@H](CCCNC(=N)N)NC(=O)[C@@H]1CCC(=O)N1)C(=O)N[C@H](C)C(=O)N[C@H](Cc1ccccc1)C(=O)O) [pE-R-a-R-L-a-H-K-G-P-nle-a-f-OH]	623
[pGlu]RPRL[dA][dA]KGP[dNle][dA][dF]-OH (SMILES CCCC[C@@H](NC(=O)[C@@H]1CCCN1C(=O)CNC(=O)[C@H](CCCCN)NC(=O)[C@@H](C)NC(=O)[C@@H](C)NC(=O)[C@H](CC(C)C)NC(=O)[C@H](CCCNC(=N)N)NC(=O)[C@@H]1CCCN1C(=O)[C@H](CCCNC(=N)N)NC(=O)[C@@H]1CCC(=O)N1)C(=O)N[C@H](C)C(=O)N[C@H](Cc1ccccc1)C(=O)O) [pE-R-P-R-L-a-a-K-G-P-nle-a-f-OH]	16.1
[pGlu]RPRLS[dA]KGP[dNle][dA][dF]-OH (SMILES CCCC[C@@H](NC(=O)[C@@H]1CCCN1C(=O)CNC(=O)[C@H](CCCCN)NC(=O)[C@@H](C)NC(=O)[C@H](CO)NC(=O)[C@H](CC(C)C)NC(=O)[C@H](CCCNC(=N)N)NC(=O)[C@@H]1CCCN1C(=O)[C@H](CCCNC(=N)N)NC(=O)[C@@H]1CCC(=O)N1)C(=O)N[C@H](C)C(=O)N[C@H](Cc1ccccc1)C(=O)O) [pE-R-P-R-L-S-a-K-G-P-nle-a-f-OH]	8.5
[pGlu]RPRY[dA]HKGP[dNle][dA][dF]-OH (SMILES CCCC[C@@H](NC(=O)[C@@H]1CCCN1C(=O)CNC(=O)[C@H](CCCCN)NC(=O)[C@H](Cc1c[nH]cn1)NC(=O)[C@@H](C)NC(=O)[C@H](Cc1ccc(O)cc1)NC(=O)[C@H](CCCNC(=N)N)NC(=O)[C@@H]1CCCN1C(=O)[C@H](CCCNC(=N)N)NC(=O)[C@@H]1CCC(=O)N1)C(=O)N[C@H](C)C(=O)N[C@H](Cc1ccccc1)C(=O)O) [pE-R-P-R-Y-a-H-K-G-P-nle-a-f-OH]	114
ERPRLSXKGPLPF (pE at 1; Aib at 7; Nle (L-norleucine) at 11; D-Phe at 13) [pE-R-P-R-L-S-Aib-K-G-P-Nle-P-f-OH]	4.5
[pGlu]RPRL[dA]HKGP[dNle][dA][dF]-NH2 [pE-R-P-R-L-a-H-K-G-P-nle-a-f-NH2]	14.8
[pGlu]RPRL[dA]HKGP[Nle][dA]F-OH [pE-R-P-R-L-a-H-K-G-P-Nle-a-F-OH]	4.5
